This note sets out measurements from patent publication US20250108096A1, “ALCOHOL CLEANSING METHODS” (Aperiam Bio, Inc., priority 2023, published 2025).

Holding throughout (type): in vivo
Test [1] has as its system ethanol levels in circulation. Kind of test: Alcohol clearance in mice by pulmonary delivery of ADH, Abcam Ethanol Detection kit (Example 2). The conditions noted are these: protocol of Example 1, FIG. 5. The method, then: However, the Abcam Ethanol Detection kit was utilized for ethanol detection and the experimental group delivered ADH and NAD^+ were administered 1 mg ADH, 0.15 mmole NAD^+ (as opposed to 2 mg ADH, 0.15 mmole NAD^+ utilized in Example 1).

In test [2] the test system is ethanol levels in circulation. Description: Blood ethanol in mice after intratracheal ADH, variant ALDH and variant NOX (Example 7). The note with it: 2 g/kg ethanol oral gavage, intratracheal 60 minutes later: 300 μg ADH, 2.52 mg variant ALDH, 250 μg variant NOX, no NAD+, 2 mice per group, FIG. 8. As to the method:
Enzyme and Enzyme Solution: Alcohol dehydrogenase (ADH) from Saccharomyces cerevisiae lyophilized powder), ≥300 units/mg protein, was utilized (Sigma-Aldrich; A7011). ADH solution was prepared by diluting 200 mg of ADH in 2 mL of phosphate buffered saline (PBS) on the day the study protocol began. A variant of human ALDH (hALDH2) and a variant of the Lactobacillus brevis NOX enzyme were utilized. The variant hALDH2 and variant NOX enzymes were generated in Escherichia coli and each comprise an N-terminal HIS-tag to facilitate purification. A variant hALDH2 solution was prepared at a concentration of 60 mg/mL and a variant NOX solution was prepared at 50 mg/mL.
(§1) Ethanol Solution: Non-denatured ethanol was diluted to a 70% volume/volume solution.
(§2) Ethanol Detection: Ethanol was detected using the Sigma-Aldrich Ethanol Assay Kit (MAK076) according to the manufacturer's protocol for colorimetric detection. Several dilutions for a 5 μL blood draw were tested to ensure the sample was within the linear range of the standard curve. Working in a lab space exposed to ethanol vapors was avoided. […]

Test [3] deals with ethanol levels in circulation. Kind of test: Blood ethanol in mice after intratracheal yeast ADH and human ALDH2 variant (Example 6). The note with it: 2 g/kg ethanol oral gavage, intratracheal 60 minutes later: 2 mg or 600 U ADH, 0.15 mmol NAD+, with or without 1.2 mg variant ALDH, 2 mice per group, FIG. 7. As to the method: Enzyme and Enzyme Solution: Alcohol dehydrogenase (ADH) from Saccharomyces cerevisiae lyophilized powder), ≥300 units/mg protein, was utilized (Sigma-Aldrich; A7011). NAD^+ utilized was obtained commercially (Sigma-Aldrich; SKU 10127965001). The Enzyme plus NAD^+ solution was prepared by diluting 100 mg of ADH and 100 mg of NAD^+ in 2 mL of PBS. ADH plus NAD^+ solution was prepared by diluting 200 mg of ADH plus 200 mg NAD^+ in 2 mL of phosphate buffered saline (PBS) on the day the study protocol began. A variant of human ALDH was utilized.
as §1
Ethanol Detection: Ethanol was detected using the Abcam Ethanol Assay Kit (ab65343) according to the manufacturer's protocol for colorimetric detection. Several dilutions for a 5 μL blood draw were tested to ensure the sample was within the linear range of the standard curve. Working in a lab space exposed to ethanol vapors was avoided.
To evaluate the combined effect of ADH and a variant ALDH enzyme delivery to the lungs of mice on ethanol levels in circulation after acute ethanol intoxication, ethanol control and experimental group mice were administered 2 g/kg ethanol by oral gavage (90 μL of 70% ethanol solution for a 25 g mouse) at time one. […]

For test [4], the system named is ethanol levels in circulation. Description: Blood ethanol in mice after intratracheal commercial ADH and ALDH (Example 5). The note with it: 4 g/kg ethanol oral gavage, intratracheal 60 minutes later: 2 mg or 600 U ADH, 10 mg or 20 U ALDH, each with 0.15 mmol NAD+, 2 mice per group, FIG. 6. As to the method:
Enzyme and Enzyme Solution: Alcohol dehydrogenase (ADH) from Saccharomyces cerevisiae lyophilized powder), ≥300 units/mg protein, was utilized (Sigma-Aldrich; A7011). NAD utilized was obtained commercially (Sigma-Aldrich; SKU 10127965001). The Enzyme plus NAD solution was prepared by diluting 100 mg of ADH and 100 mg of NAD in 2 mL of PBS. ADH plus NAD^+ solution was prepared by diluting 100 mg of ADH plus 100 mg NAD^+ in 2 mL of phosphate buffered saline (PBS) on the day the study protocol began.
Aldehyde dehydrogenase (ALDH) (lyophilized powder), ≥2.0 units/mg protein potassium-activated, 50 mg total (Cymit; CAS: 9028-88-0) was utilized. ALDH plus NAD^+ solution was prepared by diluting 50 mg ALDH and 100 mg NAD^+ in 0.500 mL of PBS on the day the study protocol began. Any unused ALDH plus NAD^+ solution was stored in a −80° C.
as §1, §2

Test [5] concerns ethanol levels in circulation. Kind of test: Circulating ethanol levels after acute ethanol intoxication, ADH delivered to mouse lung (Example 1). The note with it: mice. As to the method:
Enzyme and Enzyme Solution: Alcohol dehydrogenase (ADH) from Saccharomyces cerevisiae lyophilized powder), ≥300 units/mg protein, was utilized (Sigma-Aldrich; A7011). NAD^+ utilized was obtained commercially (Sigma-Aldrich; SKU 10127965001). Enzyme solution was prepared by diluting 100 mg of ADH in 2 mL of phosphate buffered saline (PBS) on the day the study protocol began. The Enzyme plus NAD^+ solution was prepared by diluting 100 mg of ADH and 100 mg of NAD^+ in 2 mL of PBS.
Ethanol Solution: Non-denatured ethanol was diluted to a 20% weight/volume solution with PBS (4.3M ethanol solution).
Blood Draw Dilution: Blood was drawn from mice at time points zero, 30 minutes, 1 hour and/or 4 hours after ethanol gavage (FIG. 2) and diluted 100× in buffer. The blood was processed for plasma, 50 μl of blood from the tail vein at each time point was collected using 125 μl heparinized capillary tube (Fisher Sci Cat #14-915-64). Using a pipette the heparinized blood was forced out by air of the capillary tube and into a 0.6 ml mct. The tubes were kept on ice and subsequently spun down to recover the plasma. Plasma was removed and placed into a new tube and kept on ice until needed for the same day assay. […]
Ethanol Detection: Ethanol was detected using the Sigma-Aldrich Ethanol Assay Kit (MAK076) according to the manufacturer's protocol for colorimetric detection. […]

B1: Alcohol dehydrogenase (ADH) from Saccharomyces cerevisiae (protein, UniProt P00330 2-348, looked up)
Alcohol dehydrogenase 1: SIPETQKGVIFYESHGKLEYKDIPVPKPKANELLINVKYSGVCHTDLHAWHGDWPLPVKLPLVGGHEGAGVVVGMGENVKGWKIGDYAGIKWLNGSCMACEYCELGNESNCPHADLSGYTHDGSFQQYATADAVQAAHIPQGTDLAQVAPILCAGITVYKALKSANLMAGHWVAISGAAGGLGSLAVQYAKAMGYRVLGIDGGEGKEELFRSIGGEVFIDFTKEKDIVGAVLKATDGGAHGVINVSVSEAAIEASTRYVRANGTTVLVGMPAGAKCCSDVFNQVVKSISIVGSYVGNRADTREALDFFARGLVKSPIKVVGLSTLPEIYEKMEKGQIVGRYVVDTSK
notes: Commercial yeast alcohol dehydrogenase, lyophilized powder, ≥300 units/mg protein (Sigma-Aldrich; A7011)
For the molecule B1, the “blood alcohol levels relative to animals that were not administered ADH” value is reported as “reduced” in test [1] and “reduced” in test [5] (ethanol 2 g/kg oral gavage, ADH intratracheally 15 minutes after gavage, blood at 30 minutes, 1 hour, 4 hours, FIG. 3). In addition, the “amount of alcohol in the blood” value in test [2] and in test [3] was “lowered the amount of alcohol in the blood” each time. Besides, the “effect on removing alcohol (blood ethanol level)” value in test [4] is “stronger effect on removing alcohol compared to ALDH alone”. Further, in test [5] (ethanol by oral gavage, intratracheal administration of ADH, FIG. 1), the “circulating ethanol levels relative to control” value is on record as “reduced”.
